Three molecules from paper PMC5449630 can be followed below.

Read-outs that look alike come from different tables or passages of the source.

The target of data set [1] is T1, mPNKP D170A (Mus musculus (murine), UniProt Q9JLV6 1-522, D170A). The data set can be described thus: EMSA.
Data set [2] concerns the target T1, mPNKP D170A. Nature of the data set: EMSA. The source holds these as a separate data set.

T1 sequence (Q9JLV6 whole entry D170A): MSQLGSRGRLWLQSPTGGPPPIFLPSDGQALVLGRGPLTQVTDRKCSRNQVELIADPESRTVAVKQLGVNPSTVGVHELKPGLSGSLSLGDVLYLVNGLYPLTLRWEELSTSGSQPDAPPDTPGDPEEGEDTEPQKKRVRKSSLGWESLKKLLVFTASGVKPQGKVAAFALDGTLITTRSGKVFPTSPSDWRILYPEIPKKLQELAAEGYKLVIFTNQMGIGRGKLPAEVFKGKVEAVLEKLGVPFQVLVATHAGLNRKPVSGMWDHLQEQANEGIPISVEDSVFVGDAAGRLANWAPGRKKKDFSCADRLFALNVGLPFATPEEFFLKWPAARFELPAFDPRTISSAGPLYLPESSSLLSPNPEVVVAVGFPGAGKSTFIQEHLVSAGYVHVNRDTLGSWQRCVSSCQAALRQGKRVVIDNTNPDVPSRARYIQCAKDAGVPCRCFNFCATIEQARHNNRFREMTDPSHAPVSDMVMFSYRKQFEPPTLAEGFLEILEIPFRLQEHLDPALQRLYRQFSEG

B1: FAM-20p/20c blunt duplex (dsDNA)
DNA 1: TAGCACCTACCGATTGTATG
DNA 2: CATACAATCGGTAGGTGCTA
modifications: 3'-phosphate on strand 1; 5'-phosphate on strand 2
For the molecule B1, the binding result in data set [1] is “binds”. With TAGCACCTACCGATTGTATG (ssDNA, 3'-phosphate) [FAM-20p ssDNA], in data set [2], the binding result is “binds”.

B2: FAM-20p/36c 5' overhang duplex (dsDNA)
DNA 1: TAGCACCTACCGATTGTATG
DNA 2: CGACACAAAAACGTATCATACAATCGGTAGGTGCTA
modifications: 3'-phosphate on strand 1; 5'-phosphate on strand 2
B2: in data set [1], the binding result is listed as “binds”.
